Values belong to the binder of their own block, whether it stands above or below them.
How the values were obtained:
[1] = biological target: T1, soluble interleukin-6 receptor (sIL-6R) (Homo sapiens, UniProt P08887); assay: cell-based or functional assay
[2] = biological target: T1, soluble interleukin-6 receptor (sIL-6R); assay: SPR; Biacore X100 plus; anti-Fc antibody immobilised on CM5 chip (~2500 RU) captures the antibody sample (1.0 ug/mL, 10 uL/min, 60 s); IL-6R injected 150 to 4.7 ng/mL, 30 uL/min, 180 s, dissociation 500 s, HBS-EP+ buffer; minimum and maximum of four batches; conditions: both partners purified

T1 sequence (P08887 20-365): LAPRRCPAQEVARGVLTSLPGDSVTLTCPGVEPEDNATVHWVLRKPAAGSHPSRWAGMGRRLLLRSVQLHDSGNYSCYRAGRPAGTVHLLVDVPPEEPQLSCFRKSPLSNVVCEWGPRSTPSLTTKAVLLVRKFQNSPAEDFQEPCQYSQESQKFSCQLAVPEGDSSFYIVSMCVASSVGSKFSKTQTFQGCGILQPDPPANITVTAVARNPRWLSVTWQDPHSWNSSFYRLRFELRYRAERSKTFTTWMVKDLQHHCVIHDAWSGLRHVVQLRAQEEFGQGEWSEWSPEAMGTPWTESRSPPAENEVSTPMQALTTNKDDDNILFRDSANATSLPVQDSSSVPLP

DS-1 cell growth inhibition (CCK-8, 72 hrs, antibody 800 ug/mL to 12.21 ng/mL), relative potency (EC50) towards originator tocilizumab, batch 1 of 4; blocks IL-6 with IL-6R on the cells [1]: 98 % relative potency
DS-1 cell growth inhibition (CCK-8, 72 hrs, antibody 800 ug/mL to 12.21 ng/mL), relative potency (EC50) towards originator tocilizumab, batch 2 of 4; blocks IL-6 with IL-6R on the cells [1]: 102 % relative potency
DS-1 cell growth inhibition (CCK-8, 72 hrs, antibody 800 ug/mL to 12.21 ng/mL), relative potency (EC50) towards originator tocilizumab, batch 3 of 4; blocks IL-6 with IL-6R on the cells [1]: 94 % relative potency
DS-1 cell growth inhibition (CCK-8, 72 hrs, antibody 800 ug/mL to 12.21 ng/mL), relative potency (EC50) towards originator tocilizumab, batch 4 of 4; blocks IL-6 with IL-6R on the cells [1]: 105 % relative potency
Kd [2]: 0.92 to 1.17 nM
B1: HS628 (proposed biosimilar tocilizumab) (antibody, V domains shown)
VH: EVQLQESGPGLVRPSQTLSLTCTVSGYSITSDHAWSWVRQPPGRGLEWIGYISYSGITTYNPSLKSRVTMLRDTSKNQFSLRLSSVTAADTAVYYCARSLARTTAMDYWGQGSLVTVSS
VL: DIQMTQSPSSLSASVGDRVTITCRASQDISSYLNWYQQKPGKAPKLLTYYTSRLHSGVPSRFSGSGSGTDFTFTISSLQPEDIATYYCQQGNTLPYTFGQGTKVEIK
notes: found identical to the heavy chain of m1; found identical to the light chain of m1; IgG1; Four batches tested (20130901-20130904); source: Zhejiang Hisun Pharmaceutical; copies: 2 + 2

Kd [2]: 1.08 to 1.78 nM
B2: Originator tocilizumab (Actemra) (antibody, V domains shown)
VH: B1 VH
VL: B1 VL
notes: Recombinant humanized IgG1; also called originator product; source: bought: Roche Pharma (Schweiz) Ltd. (manufactured by Chugai Pharma Manufacturing Co., Ltd.); copies: 2 + 2

Reference: article PMC5352868, “Physicochemical and Biological Characterization of the Proposed Biosimilar Tocilizumab” (BioMed Research International, 2017)
